Molecular target: the molecule itself
Assay: AUC

B1: dihydroneopterin aldolase from Mycobacterium tuberculosis H37Rv (enzyme)
chain: MADRIELRGLTVHGRHGVYDHERVAGQRFVIDVTVWIDLAEAANSDDLADTYDYVRLASRAAEIVAGPPRKLIETVGAEIADHVMDDQRVHAVEVAVHKPQAPIPQTFDDVAVVIRRSRRGGRGWVVPAGGAV
Q: How did the “stoichiometry N” value turn out when B1 was run?
A: 4
